Assay results published in US20080193453A1.

Tests used:
[1] = target: transferrin receptor (TfR, CD71) on cells (human) (UniProt P02786); assay: cell-based or functional assay
[2] = target: Recombinant (His)6-tagged TfR1 ectodomain (human) (UniProt P02786); assay: SPR (Biacore 2000), K'd, TfR-(His)6 captured at low density (120 RU) on anti-(His)6 chip
[3] = target: Recombinant (His)6-tagged TfR1 ectodomain (human) (UniProt P02786); assay: SPR (Biacore 2000), K'd, TfR-(His)6 captured at high density (1650 RU) on anti-(His)6 chip

Recombinant (His)6-tagged TfR1 ectodomain (human), sequence (P02786 89-760 limits assumed, form in doubt): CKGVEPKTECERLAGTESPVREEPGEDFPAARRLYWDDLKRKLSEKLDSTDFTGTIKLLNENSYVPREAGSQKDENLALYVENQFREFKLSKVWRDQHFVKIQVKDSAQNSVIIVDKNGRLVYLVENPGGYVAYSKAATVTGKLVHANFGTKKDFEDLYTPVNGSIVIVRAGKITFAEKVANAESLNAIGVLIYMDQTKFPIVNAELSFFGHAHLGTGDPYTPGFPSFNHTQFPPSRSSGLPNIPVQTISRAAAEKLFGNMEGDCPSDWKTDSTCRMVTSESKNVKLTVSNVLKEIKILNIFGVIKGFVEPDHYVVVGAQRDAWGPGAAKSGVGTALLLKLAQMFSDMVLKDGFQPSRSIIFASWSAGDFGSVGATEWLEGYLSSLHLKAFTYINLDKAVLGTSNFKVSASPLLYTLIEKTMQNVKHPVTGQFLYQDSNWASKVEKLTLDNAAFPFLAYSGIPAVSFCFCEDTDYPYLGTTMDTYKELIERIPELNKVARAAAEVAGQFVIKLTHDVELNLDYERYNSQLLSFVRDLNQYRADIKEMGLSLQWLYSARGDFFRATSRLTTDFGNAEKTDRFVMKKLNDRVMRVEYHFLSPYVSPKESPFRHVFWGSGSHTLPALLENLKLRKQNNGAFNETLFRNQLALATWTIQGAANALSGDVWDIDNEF
transferrin receptor (TfR, CD71) on cells (human), sequence (P02786 whole entry, the tested form may be a part): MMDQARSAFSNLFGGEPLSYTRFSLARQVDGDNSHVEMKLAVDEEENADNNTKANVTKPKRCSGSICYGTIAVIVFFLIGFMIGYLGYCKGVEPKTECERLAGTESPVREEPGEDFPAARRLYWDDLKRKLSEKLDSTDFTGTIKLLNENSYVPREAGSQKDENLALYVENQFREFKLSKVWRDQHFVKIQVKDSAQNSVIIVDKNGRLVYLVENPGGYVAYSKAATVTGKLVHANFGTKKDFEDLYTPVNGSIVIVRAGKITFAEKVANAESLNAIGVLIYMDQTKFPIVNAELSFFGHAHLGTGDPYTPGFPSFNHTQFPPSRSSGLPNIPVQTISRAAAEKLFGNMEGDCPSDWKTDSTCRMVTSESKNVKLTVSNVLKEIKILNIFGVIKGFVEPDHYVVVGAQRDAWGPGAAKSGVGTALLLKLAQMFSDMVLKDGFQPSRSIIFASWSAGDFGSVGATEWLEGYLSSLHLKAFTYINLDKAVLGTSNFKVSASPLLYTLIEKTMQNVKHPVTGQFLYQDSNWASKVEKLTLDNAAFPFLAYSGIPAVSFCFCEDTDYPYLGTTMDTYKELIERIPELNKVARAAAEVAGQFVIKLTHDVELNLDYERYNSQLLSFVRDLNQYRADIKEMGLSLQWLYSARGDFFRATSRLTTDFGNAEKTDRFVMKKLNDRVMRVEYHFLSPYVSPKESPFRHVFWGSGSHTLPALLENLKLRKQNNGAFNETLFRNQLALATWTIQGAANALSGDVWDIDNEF

## anti-human TfR (CD71) monoclonal antibody A24
[1]
  down-regulation of TfR expression in ex vivo cell cultures from chronic and acute forms of ATL: > 75%
  down-regulation of TfR expression on HTLV-1 infected cells from acute ATL donors in IL-15 or IL-2/IL-15 conditioned medium: > 65%
[2]
  Kd: 2.69 nM
[3]
  Kd: 1.02 nM
